Source: paper PMC7911445
Where two headings read alike, the source gives them in different places.

For “β-catenin: 1-mM LiCl (GSK3β inhibitor) added to TMA/BL-treated cultures”, which localisation_or_trafficking (phosphorylation at S33) is on record?
The localisation_or_trafficking was “increases”.

What about the localisation_or_trafficking (phosphorylation at S37) of the same substance?
Its localisation_or_trafficking is “increases”.
